Data on 37 variants can be found in the Human Domainome abundance scans (Beltran et al. 2025).

Sequences and labels used below:
B1: Far upstream element-binding protein 1, residues 184 to 257; numbered along this chain, Q96AE4 (parent)
chain: GNAVQEIMIPASKAGLVIGKGGETIKQLQERAGVKMVMIQDGPQNTGADKPLRITGDPYKVQQAKEMVLELIRD

± gives the uncertainty stated by the source.

This series covers variants of B1. The series is described as follows: abundance fitness (aPCA) (normalised: wild type 0, dead -1); higher = more abundant; growth selection in yeast, the domain comes from the species named. The following applies: Homo sapiens.
On to GNAVQEIMIPNSKAGLVIGKGGETIKQLQERAGVKMVMIQDGPQNTGADKPLRITGDPYKVQQAKEMVLELIRD [A11N], for which the abundance fitness stood at 0.021 ± 0.046. Under GNAVQEIMIPYSKAGLVIGKGGETIKQLQERAGVKMVMIQDGPQNTGADKPLRITGDPYKVQQAKEMVLELIRD [A11Y] stands -0.089 ± 0.053; under GNAVQEIMIPGSKAGLVIGKGGETIKQLQERAGVKMVMIQDGPQNTGADKPLRITGDPYKVQQAKEMVLELIRD [A11G], -0.098 ± 0.027. On to GNAVQEIMIPDSKAGLVIGKGGETIKQLQERAGVKMVMIQDGPQNTGADKPLRITGDPYKVQQAKEMVLELIRD [A11D], for which the abundance fitness is -0.014 ± 0.045. With GNAVQEIMIPTSKAGLVIGKGGETIKQLQERAGVKMVMIQDGPQNTGADKPLRITGDPYKVQQAKEMVLELIRD [A11T] the figure was -0.08 ± 0.035.

Take GNAVQEIMIPQSKAGLVIGKGGETIKQLQERAGVKMVMIQDGPQNTGADKPLRITGDPYKVQQAKEMVLELIRD [A11Q]: the abundance fitness was -0.078 ± 0.04. Take GNAVQEIMIPMSKAGLVIGKGGETIKQLQERAGVKMVMIQDGPQNTGADKPLRITGDPYKVQQAKEMVLELIRD [A11M]: the abundance fitness is -0.094 ± 0.036. In the case of GNAVQEIMIPCSKAGLVIGKGGETIKQLQERAGVKMVMIQDGPQNTGADKPLRITGDPYKVQQAKEMVLELIRD [A11C], the abundance fitness was -0.034 ± 0.043. Turning to GNAVQEIMIPKSKAGLVIGKGGETIKQLQERAGVKMVMIQDGPQNTGADKPLRITGDPYKVQQAKEMVLELIRD [A11K], the abundance fitness is -0.011 ± 0.037. Regarding GNAVQEIMIPFSKAGLVIGKGGETIKQLQERAGVKMVMIQDGPQNTGADKPLRITGDPYKVQQAKEMVLELIRD [A11F], the abundance fitness is -0.13 ± 0.046. Regarding GNAVQEIMIPRSKAGLVIGKGGETIKQLQERAGVKMVMIQDGPQNTGADKPLRITGDPYKVQQAKEMVLELIRD [A11R], the abundance fitness is -0.1 ± 0.027. With GNAVQEIMIPISKAGLVIGKGGETIKQLQERAGVKMVMIQDGPQNTGADKPLRITGDPYKVQQAKEMVLELIRD [A11I] the figure was -0.096 ± 0.056.

As for GNAVQEIMIPHSKAGLVIGKGGETIKQLQERAGVKMVMIQDGPQNTGADKPLRITGDPYKVQQAKEMVLELIRD [A11H], the abundance fitness is -0.133 ± 0.052. Under GNAVQEIMIPWSKAGLVIGKGGETIKQLQERAGVKMVMIQDGPQNTGADKPLRITGDPYKVQQAKEMVLELIRD [A11W] stands -0.17 ± 0.033; under GNAVQEIMIPESKAGLVIGKGGETIKQLQERAGVKMVMIQDGPQNTGADKPLRITGDPYKVQQAKEMVLELIRD [A11E], -0.098 ± 0.035; under GNAVQEIMIPLSKAGLVIGKGGETIKQLQERAGVKMVMIQDGPQNTGADKPLRITGDPYKVQQAKEMVLELIRD [A11L], -0.092 ± 0.03. With GNAVQEIMIPVSKAGLVIGKGGETIKQLQERAGVKMVMIQDGPQNTGADKPLRITGDPYKVQQAKEMVLELIRD [A11V] the figure was -0.071 ± 0.03. Under GNAVQEIMIVASKAGLVIGKGGETIKQLQERAGVKMVMIQDGPQNTGADKPLRITGDPYKVQQAKEMVLELIRD [P10V] stands -0.946 ± 0.047; under GNAVQEIMIGASKAGLVIGKGGETIKQLQERAGVKMVMIQDGPQNTGADKPLRITGDPYKVQQAKEMVLELIRD [P10G], -0.557 ± 0.031. Take GNAVQEIMIRASKAGLVIGKGGETIKQLQERAGVKMVMIQDGPQNTGADKPLRITGDPYKVQQAKEMVLELIRD [P10R]: the abundance fitness was -0.513 ± 0.03. Under GNAVQEIMILASKAGLVIGKGGETIKQLQERAGVKMVMIQDGPQNTGADKPLRITGDPYKVQQAKEMVLELIRD [P10L] stands -0.922 ± 0.049; under GNAVQEIMIFASKAGLVIGKGGETIKQLQERAGVKMVMIQDGPQNTGADKPLRITGDPYKVQQAKEMVLELIRD [P10F], -1.13 ± 0.13. As to GNAVQEIMISASKAGLVIGKGGETIKQLQERAGVKMVMIQDGPQNTGADKPLRITGDPYKVQQAKEMVLELIRD [P10S], the abundance fitness is -0.367 ± 0.036. Under GNAVQEIMIWASKAGLVIGKGGETIKQLQERAGVKMVMIQDGPQNTGADKPLRITGDPYKVQQAKEMVLELIRD [P10W] stands -1.22 ± 0.082. For GNAVQEIMIDASKAGLVIGKGGETIKQLQERAGVKMVMIQDGPQNTGADKPLRITGDPYKVQQAKEMVLELIRD [P10D], the abundance fitness was -0.355 ± 0.045. With GNAVQEIMINASKAGLVIGKGGETIKQLQERAGVKMVMIQDGPQNTGADKPLRITGDPYKVQQAKEMVLELIRD [P10N] the figure was -0.299 ± 0.054; with GNAVQEIMIKASKAGLVIGKGGETIKQLQERAGVKMVMIQDGPQNTGADKPLRITGDPYKVQQAKEMVLELIRD [P10K], -0.287 ± 0.04; with GNAVQEIMIIASKAGLVIGKGGETIKQLQERAGVKMVMIQDGPQNTGADKPLRITGDPYKVQQAKEMVLELIRD [P10I], -0.903 ± 0.084. With GNAVQEIMIEASKAGLVIGKGGETIKQLQERAGVKMVMIQDGPQNTGADKPLRITGDPYKVQQAKEMVLELIRD [P10E] the figure was -0.364 ± 0.038. Take GNAVQEIMIHASKAGLVIGKGGETIKQLQERAGVKMVMIQDGPQNTGADKPLRITGDPYKVQQAKEMVLELIRD [P10H]: the abundance fitness was -0.398 ± 0.052. Consider GNAVQEIMIMASKAGLVIGKGGETIKQLQERAGVKMVMIQDGPQNTGADKPLRITGDPYKVQQAKEMVLELIRD [P10M], for which the abundance fitness is -0.678 ± 0.05.

For GNAVQEIMIYASKAGLVIGKGGETIKQLQERAGVKMVMIQDGPQNTGADKPLRITGDPYKVQQAKEMVLELIRD [P10Y], the abundance fitness is -1.03 ± 0.12. With GNAVQEIMIQASKAGLVIGKGGETIKQLQERAGVKMVMIQDGPQNTGADKPLRITGDPYKVQQAKEMVLELIRD [P10Q] the figure was -0.391 ± 0.044; with GNAVQEIMITASKAGLVIGKGGETIKQLQERAGVKMVMIQDGPQNTGADKPLRITGDPYKVQQAKEMVLELIRD [P10T], -0.456 ± 0.042; with GNAVQEIMIPASHAGLVIGKGGETIKQLQERAGVKMVMIQDGPQNTGADKPLRITGDPYKVQQAKEMVLELIRD [K13H], -0.032 ± 0.054.

On to GNAVQEIMIPASRAGLVIGKGGETIKQLQERAGVKMVMIQDGPQNTGADKPLRITGDPYKVQQAKEMVLELIRD [K13R], for which the abundance fitness is -0.187 ± 0.028. For the variant GNAVQEIMIPASDAGLVIGKGGETIKQLQERAGVKMVMIQDGPQNTGADKPLRITGDPYKVQQAKEMVLELIRD [K13D], the abundance fitness is -0.155 ± 0.048.
